Literature values in paper PMC4448168.

Biological target: α7 nAChR (UniProt P36544)
UniProt P36544, sequence (P36544 23-502): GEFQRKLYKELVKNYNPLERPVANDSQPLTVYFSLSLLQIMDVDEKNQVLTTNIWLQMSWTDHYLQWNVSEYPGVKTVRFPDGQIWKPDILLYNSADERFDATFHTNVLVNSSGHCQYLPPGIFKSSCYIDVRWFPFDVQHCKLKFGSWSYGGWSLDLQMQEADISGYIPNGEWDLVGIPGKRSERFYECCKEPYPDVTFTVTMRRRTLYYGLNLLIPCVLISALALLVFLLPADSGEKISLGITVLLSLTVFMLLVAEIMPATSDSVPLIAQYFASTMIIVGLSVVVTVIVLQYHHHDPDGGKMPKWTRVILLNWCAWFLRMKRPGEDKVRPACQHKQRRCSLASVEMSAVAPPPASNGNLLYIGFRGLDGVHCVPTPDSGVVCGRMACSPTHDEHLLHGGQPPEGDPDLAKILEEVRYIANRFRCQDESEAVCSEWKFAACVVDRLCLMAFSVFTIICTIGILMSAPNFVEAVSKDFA

Substance: α-elapitoxin-Aa2a (from UniProt P86522)
- Ki: 214 µM
